Consider four molecules from patent US20080305188A9, “Composition and method for supporting cancer treatments” (priority 2003, published 2008).

Read-outs that look alike come from different tables or passages of the source. Marks after values point to notes of the source that are not given here.

Data set [1] in a line: Body weight of mice given 5-Fu. The data set is classed as in vivo.
Data set [2] has as its system BALB/c mice injected with 5-Fu. The data set is described as follows: Blood cell counts in mice given 5-Fu (reduction of bone marrow suppression). The data set is classed as in vivo.
Data set [3] can be described thus: Pharmacokinetics study of intravenous injection of matrine or oxymatrine with addition of geranium oil (HPLC peak areas). As to conditions: with addition of geranium oil versus compound alone.
For data set [4], the system named is white blood cells. As to conditions: taken orally; previously published animal experiments and clinical trials; cited from earlier work.
The conditions of data set [5]: in vivo, iv.
Setting [6] is: Day 10, 5-Fu 135 mg/kg IP single dose only.
The mark [7] stands for this setting: Day 14, 5-Fu 135 mg/kg IP single dose only.
[8] abbreviates: Day 10, 135 μg/mouse G-CSF and 5-Fu.
Setting [9] is: Day 14, 135 μg/mouse G-CSF and 5-Fu.

The molecule `O=c1[nH]cc(F)c(=O)[nH]1` [5-Fu, 5-Fluorouracil, reference compound] yielded a weight of mice in data set [1] (Day 0, 5-Fu only group, in g) of 22.0 ± 0.93. In data set [1] (Day 10, 5-Fu only group), this molecule gave a weight of mice of 22.3 ± 1.53 g. This molecule also had a weight of mice in data set [1] (Day 14, 5-Fu only group, in g) of 23.5 ± 0.78. In addition, in data set [1] (Day -2, 5-Fu only group, in g), the weight of mice amounted to 20.7 ± 0.90. Besides, in data set [2] (setting [6]), the “GR (granulocytes) count” value was 0.25 ± 0.050 10^3/μl, the “LY (lymphocytes) count” value is recorded as 3.66 ± 0.648 10^3/μl, the “MO (monocytes) count” value was 0.25 ± 0.046 10^3/μl and the “PLT (platelets) count” value is 2828 ± 632.4 10^3/μl. Also, in data set [2] (setting [6]), the “RBC (erythrocytes) count” value was 7.86 ± 0.171 10^6/μl and the “WBC (total leukocytes) count” value is given as 4.17±0.677 10^3/μl. In data set [2] (setting [7]), the “GR (granulocytes) count” value is 1.65 ± 0.756 10^3/μl, the “LY (lymphocytes) count” value was 5.75 ± 0.880 10^3/μl, the “MO (monocytes) count” value is reported as 0.59 ± 0.316 10^3/μl and the “PLT (platelets) count” value is recorded as 2219 ± 750.2 10^3/μl. In data set [2] (setting [7]), the “RBC (erythrocytes) count” value was 8.09 ± 0.331 10^6/μl and the “WBC (total leukocytes) count” value is 7.98 ± 1.575 10^3/μl.

`O=C1CCC[C@@H]2[C@H]3CCCN4CCC[C@@H](CN12)[C@@H]34` [matrine]: the “absorption and metabolism of the compound (changes in HPLC peak areas over time)” value in data set [3] was “increase the absorption and metabolism”.

Regarding `O=C1CCC[C@@H]2[C@H]3CCC[N+]4([O-])CCC[C@@H](CN12)[C@@H]34` (stereo partly shown) [oxymatrine], the “effect on increasing white blood cells” value in data set [4] is on record as “does not show any effect on increasing white blood cells”. Also, in data set [5], the “absorption and metabolism of the compound (changes in HPLC peak areas over time)” value is “increase the absorption and metabolism”.

B1: G-CSF/5-Fu: granulocyte colony-stimulating factor, comparison treatment given with 5-Fu (protein, UniProt P09919 31-207, looked up)
Granulocyte …: TPLGPASSLPQSFLLKCLEQVRKIQGDGAALQEKLVSECATYKLCHPEELVLLGHSLGIPWAPLSSCPSQALQLAGCLSQLHSGLFLYQGLLQALEGISPELGPTLDTLQLDVADFATTIWQQMEELGMAPALQPTQGAMPAFASAFQRRAGGVLVASHLQSFLEVSYRVLRHLAQP
B1: the weight of mice in data set [1] (Day 0, G-CSF and 5-Fu, in g) is on record as 22.0 ± 1.84. In data set [1] (Day 14, G-CSF and 5-Fu, in g), this molecule displayed a weight of mice of 24.0 ± 1.64. In data set [1] (Day -2, G-CSF and 5-Fu, in g), the weight of mice is 20.5 ± 1.76. In addition, in data set [2] (setting [8]), the “GR (granulocytes) count” value was 0.71 ± 0.268** 10^3/μl, the “LY (lymphocytes) count” value is listed as 5.01 ± 1.372* 10^3/μl, the “MO (monocytes) count” value is recorded as 0.38 ± 0.141* 10^3/μl and the “PLT (platelets) count” value was 2303 ± 491.7 10^3/μl. Further, in data set [2] (setting [8]), the “RBC (erythrocytes) count” value was 7.82 ± 0.424 10^6/μl, the “WBC (total leukocytes) count” value is 5.46±2.338 10^3/μl, the “bone marrow suppression effect (WBC) relative to that of 5-Fu only” value turned out to be 51% and the “suppression effect with respect to granulocytes relative to 5-Fu only” value worked out at 54%. For the same molecule, in data set [2] (setting [8]), the “suppression effect with respect to lymphocytes relative to 5-Fu only” value is listed as 18% and the “suppression effect with respect to monocytes relative to 5-Fu only” value worked out at 7%. For the same molecule, the “WBC (total leukocytes) count” value in data set [2] (Day 10, 135 μg/mouse G-CSF and 5-Fu, listed as C-GSF/5-Fu) is reported as 5.46 ± 2.338 10^3/μl. Further, in data set [2] (setting [9]), the “GR (granulocytes) count” value is listed as 1.64 ± 0.405 10^3/μl, the “LY (lymphocytes) count” value is on record as 6.12 ± 1.164 10^3/μl, the “MO (monocytes) count” value was 0.58 ± 0.266 10^3/μl and the “PLT (platelets) count” value was 2105 ± 378.1 10^3/μl. Besides, in data set [2] (setting [9]), the “RBC (erythrocytes) count” value is reported as 8.02 ± 0.340 10^6/μl; the “WBC (total leukocytes) count” value was 8.34 ± 1.454 10^3/μl; the “total leukocyte count and lymphocyte count (only these) versus 5-Fu only” value is recorded as “continued to increase to a higher level than that of mice treated with 5-Fu only”.
